Results taken from the Human Domainome abundance scans (Beltran et al. 2025).
± gives the uncertainty stated by the source.

B1: Zinc finger homeobox protein 3, residues 2643 to 2698; numbered along this chain, Q15911 (parent)
chain: RLRTTITPEQLEILYQKYLLDSNPTRKMLDHIAHEVGLKKRVVQVWFQNTRARERK

Variants of: B1
Assay: abundance fitness (aPCA) (normalised: wild type 0, dead -1); higher = more abundant; growth selection in yeast, the domain comes from the species named
Settings: Homo sapiens
Variant RLRTTITPEQLEILYQKYLLDSNPTRKMHDHIAHEVGLKKRVVQVWFQNTRARERK has an abundance fitness of -0.766 ± 0.2. In the case of RLRTTITPEQLEILYQKYLLDSNPTRKMNDHIAHEVGLKKRVVQVWFQNTRARERK, the abundance fitness is reported as -0.724 ± 0.16. Variant RLRTTITPEQLEILYQKYLLDSNPTRKMGDHIAHEVGLKKRVVQVWFQNTRARERK has an abundance fitness of -0.683 ± 0.092. With RLRTTITPEQLEILYQKYLLDSNPTRKMIDHIAHEVGLKKRVVQVWFQNTRARERK the abundance fitness was 0.167 ± 0.13. Variant RLRTTITPEQLEILYQKYLLDSNPTRKMRDHIAHEVGLKKRVVQVWFQNTRARERK has an abundance fitness of -0.544 ± 0.079. Work on RLRTTITPEQLEILYQKYLLDSNPTRKMADHIAHEVGLKKRVVQVWFQNTRARERK yielded an abundance fitness of -0.552 ± 0.099. Variant RLRTTITPEQLEILYQKYLLDSNPTRKMDDHIAHEVGLKKRVVQVWFQNTRARERK has an abundance fitness of -0.805 ± 0.15. RLRTTITPEQLEILYQKYLLDSNPTRKMEDHIAHEVGLKKRVVQVWFQNTRARERK gave an abundance fitness of -0.159 ± 0.14. For RLRTTITPEQLEILYQKYLLDSNPTRKMMDHIAHEVGLKKRVVQVWFQNTRARERK, the abundance fitness was 0.028 ± 0.12. With RLRTTITPEQLEILYQKYLLDSNPTRKMFDHIAHEVGLKKRVVQVWFQNTRARERK the abundance fitness was 0.069 ± 0.12. For RLRTTITPEQLEILYQKYLLDSNPTRKMSDHIAHEVGLKKRVVQVWFQNTRARERK, the abundance fitness was -0.488 ± 0.091. In the case of RLRTTITPEQLEILYQKYLLDSNPTRKMCDHIAHEVGLKKRVVQVWFQNTRARERK, the abundance fitness is reported as -0.056 ± 0.11. RLRTTITPEQLEILYQKYLLDSNPTRKMVDHIAHEVGLKKRVVQVWFQNTRARERK showed an abundance fitness of -0.043 ± 0.082. In the case of RLRTTITPEQLEILYQKYLLDSNPTRKMKDHIAHEVGLKKRVVQVWFQNTRARERK, the abundance fitness is reported as -0.695 ± 0.16. With RLRTTITPEQLEILYQKYLLDSNPTRKMTDHIAHEVGLKKRVVQVWFQNTRARERK the abundance fitness was -0.273 ± 0.097. For RLRTTITPEQLEILYQKYLLDSNPTRKMQDHIAHEVGLKKRVVQVWFQNTRARERK, the abundance fitness was -0.254 ± 0.12. Work on RLRTTITPEQLEILYQKYLLDSNPTRKMPDHIAHEVGLKKRVVQVWFQNTRARERK yielded an abundance fitness of -0.8 ± 0.15. Variant RLRTTITPEQLEILYQKYLLDSNPTRKMLDFIAHEVGLKKRVVQVWFQNTRARERK has an abundance fitness of -0.068 ± 0.14. With RLRTTITPEQLEILYQKYLLDSNPTRKMLDSIAHEVGLKKRVVQVWFQNTRARERK the abundance fitness was 0.215 ± 0.086. With RLRTTITPEQLEILYQKYLLDSNPTRKMLDGIAHEVGLKKRVVQVWFQNTRARERK the abundance fitness was 0.198 ± 0.075. Work on RLRTTITPEQLEILYQKYLLDSNPTRKMLDYIAHEVGLKKRVVQVWFQNTRARERK yielded an abundance fitness of -0.014 ± 0.19. RLRTTITPEQLEILYQKYLLDSNPTRKMLDAIAHEVGLKKRVVQVWFQNTRARERK gave an abundance fitness of 0.109 ± 0.083. Variant RLRTTITPEQLEILYQKYLLDSNPTRKMLDPIAHEVGLKKRVVQVWFQNTRARERK has an abundance fitness of -0.836 ± 0.19. RLRTTITPEQLEILYQKYLLDSNPTRKMLDVIAHEVGLKKRVVQVWFQNTRARERK showed an abundance fitness of 0.134 ± 0.08. Variant RLRTTITPEQLEILYQKYLLDSNPTRKMLDRIAHEVGLKKRVVQVWFQNTRARERK has an abundance fitness of -0.237 ± 0.088. RLRTTITPEQLEILYQKYLLDSNPTRKMLDEIAHEVGLKKRVVQVWFQNTRARERK gave an abundance fitness of 0.265 ± 0.1. RLRTTITPEQLEILYQKYLLDSNPTRKMLDWIAHEVGLKKRVVQVWFQNTRARERK showed an abundance fitness of -0.251 ± 0.14. With RLRTTITPEQLEILYQKYLLDSNPTRKMLDKIAHEVGLKKRVVQVWFQNTRARERK the abundance fitness was -0.166 ± 0.15. With RLRTTITPEQLEILYQKYLLDSNPTRKMLDLIAHEVGLKKRVVQVWFQNTRARERK the abundance fitness was 0.056 ± 0.095. Work on RLRTTITPEQLEILYQKYLLDSNPTRKMLDQIAHEVGLKKRVVQVWFQNTRARERK yielded an abundance fitness of 0.169 ± 0.15. Work on RLRTTITPEQLEILYQKYLLDSNPTRKMLDMIAHEVGLKKRVVQVWFQNTRARERK yielded an abundance fitness of 0.073 ± 0.12. In the case of RLRTTITPEQLEILYQKYLLDSNPTRKMLDNIAHEVGLKKRVVQVWFQNTRARERK, the abundance fitness is reported as 0.315 ± 0.16. Work on RLRTTITPEQLEILYQKYLLDSNPTRKMLDIIAHEVGLKKRVVQVWFQNTRARERK yielded an abundance fitness of 0.009 ± 0.16. Variant RLRTTITPEQLEILYQKYLLDSNPTRKMLDCIAHEVGLKKRVVQVWFQNTRARERK has an abundance fitness of 0.096 ± 0.13. With RLRTTITPEQLEILYQKYLLDSNPTRKMLDDIAHEVGLKKRVVQVWFQNTRARERK the abundance fitness was 0.348 ± 0.1. RLRTTITPEQLEILYQKYLLDSNPTRKMLFHIAHEVGLKKRVVQVWFQNTRARERK gave an abundance fitness of -0.446 ± 0.22. RLRTTITPEQLEILYQKYLLDSNPTRKMLIHIAHEVGLKKRVVQVWFQNTRARERK showed an abundance fitness of -0.071 ± 0.14. Variant RLRTTITPEQLEILYQKYLLDSNPTRKMLPHIAHEVGLKKRVVQVWFQNTRARERK has an abundance fitness of -0.543 ± 0.12. For RLRTTITPEQLEILYQKYLLDSNPTRKMLGHIAHEVGLKKRVVQVWFQNTRARERK, the abundance fitness was -0.073 ± 0.077. Variant RLRTTITPEQLEILYQKYLLDSNPTRKMLVHIAHEVGLKKRVVQVWFQNTRARERK has an abundance fitness of -0.223 ± 0.094. RLRTTITPEQLEILYQKYLLDSNPTRKMLTHIAHEVGLKKRVVQVWFQNTRARERK gave an abundance fitness of -0.312 ± 0.13. Variant RLRTTITPEQLEILYQKYLLDSNPTRKMLEHIAHEVGLKKRVVQVWFQNTRARERK has an abundance fitness of -0.29 ± 0.11. RLRTTITPEQLEILYQKYLLDSNPTRKMLMHIAHEVGLKKRVVQVWFQNTRARERK showed an abundance fitness of -0.314 ± 0.13. RLRTTITPEQLEILYQKYLLDSNPTRKMLLHIAHEVGLKKRVVQVWFQNTRARERK gave an abundance fitness of -0.435 ± 0.099. With RLRTTITPEQLEILYQKYLLDSNPTRKMLAHIAHEVGLKKRVVQVWFQNTRARERK the abundance fitness was -0.046 ± 0.084. For RLRTTITPEQLEILYQKYLLDSNPTRKMLKHIAHEVGLKKRVVQVWFQNTRARERK, the abundance fitness was -0.214 ± 0.13. With RLRTTITPEQLEILYQKYLLDSNPTRKMLYHIAHEVGLKKRVVQVWFQNTRARERK the abundance fitness was -0.269 ± 0.14.
